Patent publication US20190233477A1

How the values were obtained:
[1] = biological target: NRPS Pc21g12630 protein ChyA (Penicillium chrysogenum)
[2] = biological target: NRPS N-(5-amino-5-carboxypentanoyl)-L-cysteinyl-D-valine synthase PcbAB (Penicillium chrysogenum)
[3] = biological target: NRPS Roquefortine/meleagrin synthesis protein A RoqA (Penicillium chrysogenum)

Chain of MbtH-like homologue identified in the Veg biosynthesis cluster obtainable from an uncultured soil bacterium, called VEG8 (chain): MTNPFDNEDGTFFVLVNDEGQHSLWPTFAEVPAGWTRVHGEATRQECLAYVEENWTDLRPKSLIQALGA
Chain of MbtH-like protein Tcp13 from the teicoplanin biosynthesis cluster from Actinoplanes teichomyceticus (chain): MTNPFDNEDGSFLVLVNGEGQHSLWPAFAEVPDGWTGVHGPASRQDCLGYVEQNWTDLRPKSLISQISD

MbtH-like homologue SCO0489 from the calcium dependent antibiotic (CDA) biosynthesis cluster from Streptomyces coelicolor, called CDAI
relative productivity of Chrysogenin 12 (chrysogenin cluster), day 5, strain DS47274, transformant 9-4, LC/MS, untransformed strain set to 1.0 (fold of the untransformed strain (1.0)) [1]: 413 | relative productivity of LLD-ACV (penicillin cluster), day 5, strain DS47274, transformant 9-5, LC/MS, untransformed strain set to 1.0 (fold of the untransformed strain (1.0)) [2]: 12.5 | relative productivity of HTD (roquefortine cluster), day 2, strain DS47274, transformant 9-5, LC/MS, untransformed strain set to 1.0 (fold of the untransformed strain (1.0)) [3]: 4.48

MbtH-like homologue from the complestatine biosynthesis cluster from Streptomyces lavendulae, called COM
relative productivity of Chrysogenin 12 (chrysogenin cluster), day 5, strain DS47274, transformant 7-3, LC/MS, untransformed strain set to 1.0 (fold of the untransformed strain (1.0)) [1]: 317 | relative productivity of LLD-ACV (penicillin cluster), day 5, strain DS47274, transformant 7-3, LC/MS, untransformed strain set to 1.0 (fold of the untransformed strain (1.0)) [2]: 22.7 | relative productivity of HTD (roquefortine cluster), day 2, strain DS47274, transformant 8-4, LC/MS, untransformed strain set to 1.0 (fold of the untransformed strain (1.0)) [3]: 2.32

MbtH-like homologue identified in the Teg biosynthesis cluster obtainable from an uncultured soil bacterium, called TEG
relative productivity of Chrysogenin 12 (chrysogenin cluster), day 5, strain DS47274, transformant 11-5, LC/MS, untransformed strain set to 1.0 (fold of the untransformed strain (1.0)) [1]: 266 | relative productivity of LLD-ACV (penicillin cluster), day 5, strain DS47274, transformant 11-5, LC/MS, untransformed strain set to 1.0 (fold of the untransformed strain (1.0)) [2]: 10.9 | relative productivity of HTD (roquefortine cluster), day 2, strain DS47274, transformant 11-5, LC/MS, untransformed strain set to 1.0 (fold of the untransformed strain (1.0)) [3]: 9.35

MbtH-like homologue identified in the Veg biosynthesis cluster obtainable from an uncultured soil bacterium, called VEG8
relative productivity of Chrysogenin 12 (chrysogenin cluster), day 5, strain DS47274, transformant 12-4, LC/MS, untransformed strain set to 1.0 (fold of the untransformed strain (1.0)) [1]: 189 | relative productivity of LLD-ACV (penicillin cluster), day 5, strain DS47274, transformant 12-4, LC/MS, untransformed strain set to 1.0 (fold of the untransformed strain (1.0)) [2]: 2.32 | relative productivity of HTD (roquefortine cluster), day 2, strain DS47274, transformant 12-4, LC/MS, untransformed strain set to 1.0 (fold of the untransformed strain (1.0)) [3]: 2.9

MbtH-like protein Tcp13 from the teicoplanin biosynthesis cluster from Actinoplanes teichomyceticus
relative productivity of Chrysogenin 12 (chrysogenin cluster), day 5, strain DS47274, transformant 10-5, LC/MS, untransformed strain set to 1.0 (fold of the untransformed strain (1.0)) [1]: 465 | relative productivity of LLD-ACV (penicillin cluster), day 5, strain DS47274, transformant 10-2, LC/MS, untransformed strain set to 1.0 (fold of the untransformed strain (1.0)) [2]: 16.1 | relative productivity of HTD (roquefortine cluster), day 2, strain DS47274, transformant 10-2, LC/MS, untransformed strain set to 1.0 (fold of the untransformed strain (1.0)) [3]: 2.64
